Assay results from patent publication US6635743.

B3: full-length AIM II (LIGHT) expressed on the cell surface (ligand)
chain: MEESVVRPSVFVVDGQTDIPFTRLGRSHRRQSCSVARVGLGLLLLLMGAGLAVQGWFLLQLHWRLGEMVTRLPDGPAGSWEQLIQERRSHEVNPAAHLTGANSSLTGSGGPLLWETQLGLAFLRGLSYHDGALVVTKAGYYYIYSKVQLGGVGCPLGLASTITHGLYKRTPRYPEELELLVSQQSPCGRATSSSRVWWDSSFLGGVVHLEAGEEVVVRVLDERLVRLRDGTRSYFGAFMV
B4: HVEM/TR2-Fc fusion protein (Fc fusion, UniProt Q92956 39-202, looked up)
chain: LPSCKEDEYPVGSECCPKCSPGYRVKEACGELTGTVCEPCPPGTYIAHLNGLSKCLQCQMCDPAMGLRASRNCSRTENAVCGCSPGHFCIVQDGDHCAACRAYATSSPGQRVQKGGTESQDTLCQNCPPGTFSPNGTLEECQHQTKCSWLVTKAGAGTSSSHWV
notes: not shown: Fc portion; detected with anti-human IgG
B5: lymphotoxin beta receptor (LTβR)-Fc fusion protein (Fc fusion, human, UniProt P36941 31-227, looked up)
chain: QAVPPYASENQTCRDQEKEYYEPQHRICCSRCPPGTYVSAKCSRIRDTVCATCAENSYNEHWNYLTICQLCRPCDPVMGLEEIAPCTSKRKTQCRCQPGMFCAAWALECTHCELLSDCPPGTEAELKDEVGKGNNHCVPCKAGHFQNTSSPSARCQPHTRCENQGLVEAAPGTAQSDTTCKNPLEPLPPEMSGTMLM
notes: extracellular domain; also called sLTβR-Fc; lymphotoxin-β receptor-Fc fusion protein; not shown: IgG1 Fc from vector pUC19-IgG1-Fc

What was measured:
[1] = target: T1, TR6-(His), recombinant TR6 protein with hexa-histidine at the C-terminus (human, UniProt O95407 30-300); assay: summary of the experiments of Example 13
T1 construct: also called DcR3; TR6 (DcR3)
T1 sequence: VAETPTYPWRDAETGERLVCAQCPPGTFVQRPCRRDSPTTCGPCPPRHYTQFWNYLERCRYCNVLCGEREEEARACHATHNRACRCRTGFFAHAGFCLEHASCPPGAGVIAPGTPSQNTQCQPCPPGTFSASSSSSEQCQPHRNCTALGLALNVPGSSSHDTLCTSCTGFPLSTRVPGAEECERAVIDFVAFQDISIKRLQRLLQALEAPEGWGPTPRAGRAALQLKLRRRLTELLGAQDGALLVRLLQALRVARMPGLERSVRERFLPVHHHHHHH

[2] = target: T2, DR4 (UniProt O00220 24-239, limits assumed); assay: in vitro binding assay, not described
T2 construct: also called TRAIL-R1; APO-2
T2 sequence (looked up): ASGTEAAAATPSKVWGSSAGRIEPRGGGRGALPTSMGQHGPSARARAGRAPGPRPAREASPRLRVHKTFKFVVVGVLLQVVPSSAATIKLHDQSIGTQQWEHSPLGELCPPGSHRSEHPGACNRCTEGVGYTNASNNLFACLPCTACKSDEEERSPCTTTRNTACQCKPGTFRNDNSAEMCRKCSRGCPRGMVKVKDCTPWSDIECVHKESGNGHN

[3] = target: T3, DR5 (UniProt O14763 56-210, limits assumed); assay: in vitro binding assay, not described
T3 construct: also called TRAIL-R2

[4] = target: B5; assay: BIAcore, LTβR-Fc immobilized by amine coupling, CHO conditioned serum-free media
Procedure: (§1) CHO cells were transfected with either an AIM II-Flag tag expression vector or an BAP-Flag (negative control). Three days after transfection, AIM II expression was determined using the BIAcore instrument (BIAcore, Inc.) which permits real-time measurements of protein binding events to immobilized AIM II receptor, lymphotoxin-β receptor (BIAcore sensorgram detects binding by changes in refractive index at the surface of the flow cell). A lymphotoxin-β receptor-Fc fusion protein was covalently immobilized to the BIAcore flow cell via amine groups using N-ethyl-N'-(dimethylaminopropyl)carbodiimide/N-hydroxysuccinimide chemistry. Various dilutions of AIM II-Flag and the negative control (BAP-Flag) conditioned serum-free media were applied to the lymphotoxin-β-receptor-derivatized flow cell at 5 µl/min for a total volume of 50 µl. The amount of bound protein was determined after washing the flow cell with HBS buffer (10 mM HEPES, pH 7.4, 150 mM NaCl, 3.4 mM EDTA, 0.005% Surfactant P20). The flow cell surface was regenerated by displacing bound protein by washing with 20 µl of 10 mM HCl.

[5] = target: T4, LTβR on the surface of MDA-MB-231 and HT-29 cells (human, UniProt P36941 31-435); assay: summary of the FACS and cytotoxicity experiments
T4 construct: whole, on cells; The cells carry both LTβR and TR2; also called lymphotoxin β receptor
Procedure: (§2) FIGS. 8A–8M. Cell surface expression of the LTβR or TR2 by the FACS analyses using LTβR (FIGS. 8A–8D) or TR2 (FIGS. 8E–8H) mAb. […] FACS binding analyses of soluble AIM II protein alone (FIG. 8I) and blocking of a soluble AIM II protein binding by preincubation with the LTβR-Fc fusion protein (FIG. 8J) or TR2-Fc fusion protein (FIG. 8K) in MDA-MB-231 cells. FIG. 8L summarizes the surface expression of LTβR and TR2 in various cell lines. Effects of LTβR-Fc or TR2-Fc fusion protein to block the sAIM II-mediated cytotoxicity in HT-29 cells (FIG. 8M). […] Cells were incubated for five days and the viability of cells was determined by XTT assays.
(§3) A soluble tetrazolium/formazan (XTT) assay for cell growth in a 96-well plate was performed. Cells (2,000–4,000 cells/well) were grown in IMEM medium with 10% FBS or 1% FBS. After four to five days culture, XTT (1.0 mg/ml plus PMS at 1.53 mg/ml) was added to each well and incubated for four hours at 37° C. Absorbance at 450 nm was measured with the Dynatech Model MR700.
(§4) Cells were collected by trypsinization or aspiration, and centrifuged at 1500–2000 rpm for 5 min. The cell pellets were resuspended and washed in 5 ml ice-cold PBS twice. […] Fluorescence was analyzed by a FACscan flow cytometer (Becton Dickinson, Mountain View, Calif.).

[6] = target: T5, TR2 on the surface of MDA-MB-231 and HT-29 cells and of T cells (human, UniProt Q92956 39-283); assay: summary of the FACS and cytotoxicity experiments
T5 construct: whole, on cells; The tumour cells carry both LTβR and TR2; also called HVEM; ATAR
T5 sequence (looked up): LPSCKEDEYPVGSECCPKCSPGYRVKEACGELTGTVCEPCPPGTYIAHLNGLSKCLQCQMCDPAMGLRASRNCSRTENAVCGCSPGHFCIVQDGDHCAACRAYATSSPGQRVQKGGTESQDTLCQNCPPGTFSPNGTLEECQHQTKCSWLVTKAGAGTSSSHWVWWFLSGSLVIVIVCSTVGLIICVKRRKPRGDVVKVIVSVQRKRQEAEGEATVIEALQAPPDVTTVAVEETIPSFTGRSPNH
Procedure: as §2, §3, §4

[7] = target: T6, Fas (UniProt P25445 26-173, limits assumed); assay: 'in a similar assay'; format not described
T6 construct: also called CD95; APO-1
T6 sequence (looked up): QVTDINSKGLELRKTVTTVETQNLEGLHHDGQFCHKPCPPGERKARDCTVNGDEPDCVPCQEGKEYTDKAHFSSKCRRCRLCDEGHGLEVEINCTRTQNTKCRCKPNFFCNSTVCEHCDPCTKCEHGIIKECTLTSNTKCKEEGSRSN

[8] = target: T7, TNFRI (UniProt P19438 30-211, limits assumed); assay: 'in a similar assay'; format not described
T7 construct: also called TNFR1
T7 sequence (looked up): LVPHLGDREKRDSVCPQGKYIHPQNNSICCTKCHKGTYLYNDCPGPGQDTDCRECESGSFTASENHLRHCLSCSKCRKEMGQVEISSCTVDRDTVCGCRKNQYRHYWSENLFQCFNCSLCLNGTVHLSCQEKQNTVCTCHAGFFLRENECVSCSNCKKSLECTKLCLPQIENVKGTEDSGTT

[9] = target: T8, DR3 (UniProt Q93038 25-199, limits assumed); assay: 'in a similar assay'; format not described
T8 construct: also called TRAMP; APO-3
T8 sequence (looked up): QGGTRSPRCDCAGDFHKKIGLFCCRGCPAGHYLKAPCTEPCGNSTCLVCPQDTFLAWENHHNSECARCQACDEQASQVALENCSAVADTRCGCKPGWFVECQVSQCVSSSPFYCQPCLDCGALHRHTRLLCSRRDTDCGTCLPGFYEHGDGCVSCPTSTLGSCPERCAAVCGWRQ

[10] = target: B4; assay: FACS competition, TR2-Fc at 10 µg/ml preincubated with sAIM II
Procedure: Cells were collected by trypsinization or aspiration, and centrifuged at 1500–2000 rpm for 5 min. The cell pellets were resuspended and washed in 5 ml ice-cold PBS twice. And then, the cells were incubated with Flag-tagged AIM II protein or Abs at 10 μg/ml in the binding buffer (HBSS containing 10% BSA, 20 mM HEPES, pH 7.2, 0.02% NaN₃, and 25 μg/ml normal rat Ig) for 30 min at 4° C. Cells were then washed and stained with phycoerythrin (PE) conjugated to goat anti-mouse IgG at 20 μg/ml as described. To compete for cell surface binding, soluble LTβR-Fc fusion protein, TR2-Fc at 10 μg/ml was preincubated with AIM II for 30 min before adding to cells. Fluorescence was analyzed by a FACscan flow cytometer (Becton Dickinson, Mountain View, Calif.).

[11] = target: B5; assay: LTβR-Fc affinity column, eluate tested on LTβR BIAcore chip; band of about 21 kDa specifically bound to the column
Procedure: Conditioned media from the stable transfectants, CHO11 or MCA-38 cells, were filtered, centrifuged at 10,000×g and then passed over an MCIF-Fc affinity column (control column) followed by the LTβR-Fc affinity column (0.2 mL bed volume). The columns were washed with several bed column volumes HEPES buffered saline containing 0.005% Surfactant P-20. Bound protein was eluted with 10 mM HCl (3×0.5 ml fractions) and immediately neutralized with TRIS buffer. The fractions eluted from the LTβR column retained binding to LTβR BIAcore chip, whereas, fractions eluted from the control MCIF-Fc column were negative for binding. The eluted fractions were dried in Spedvac then resuspended in 20 μl water. An aliquot of the eluted protein was analyzed by reducing SDS-PAGE gels and detected by silver staining. A band of approximately ~25 kDa and ~21 kDa was detected specifically bound to the LTβR column from CHO-11 and MCA-38 cell lines. The remaining eluted material was subject to SDS-PAGE and blotted onto PVDF membrane for N-terminal sequence analysis.

[12] = target: T1, TR6-(His), recombinant TR6 protein with …; assay: flow cytometry on AIM II (LIGHT)-transfected HEK 293 EBNA cells, anti-poly(His)6 and FITC anti-mouse IgG
Procedure: (§5) After selection with Hygromycin B, cells were harvested with 1 mM EDTA in PBS and incubated with TR6-(His), HVEM/TR2-Fc, or LTβR-Fc for 20 minutes on ice. For detecting Fc-fusion protein, cells were stained with FITC-conjugated goat anti-human IgG. To detect TR6 binding, cells were stained with anti-poly(His)_6 and FITC conjugated goat anti-mouse IgG consecutively. The cells were analyzed by FACScan (Becton Dickinson).
(§6) These bindings indicate that TR6 can bind to both soluble and membrane-bound forms of AIM II (LIGHT).

[13] = target: B3; assay: flow cytometry on AIM II (LIGHT)-transfected HEK 293 EBNA cells, FITC anti-human IgG
Procedure: as §5, §6

[14] = target: T9, BAP-Flag (negative control) (UniProt P00634 22-471 = phosphatase); assay: BIAcore, LTβR-Fc immobilized, conditioned serum-free media of CHO cells
T9 construct: Tested as conditioned serum-free medium of transfected CHO cells
Procedure: as §1

T9 sequence (P00634 22-471): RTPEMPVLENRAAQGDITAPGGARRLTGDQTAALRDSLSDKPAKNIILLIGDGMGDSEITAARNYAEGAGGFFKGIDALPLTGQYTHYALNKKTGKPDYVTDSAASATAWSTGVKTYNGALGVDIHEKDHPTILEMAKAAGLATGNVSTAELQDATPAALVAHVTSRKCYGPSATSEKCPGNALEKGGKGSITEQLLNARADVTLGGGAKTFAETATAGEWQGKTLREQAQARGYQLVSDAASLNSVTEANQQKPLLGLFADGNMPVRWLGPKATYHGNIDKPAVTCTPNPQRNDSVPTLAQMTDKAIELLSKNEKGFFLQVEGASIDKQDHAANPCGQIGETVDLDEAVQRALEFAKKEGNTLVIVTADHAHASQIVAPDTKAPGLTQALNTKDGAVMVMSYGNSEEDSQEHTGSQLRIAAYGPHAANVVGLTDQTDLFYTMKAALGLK

B1: Flag-tagged soluble AIM II protein (sAIM II), amino acids 74-240 of AIM II (ligand)
chain: DGPAGSWEQLIQERRSHEVNPAAHLTGANSSLTGSGGPLLWETQLGLAFLRGLSYHDGALVVTKAGYYYIYSKVQLGGVGCPLGLASTITHGLYKRTPRYPEELELLVSQQSPCGRATSSSRVWWDSSFLGGVVHLEAGEEVVVRVLDERLVRLRDGTRSYFGAFMV
notes: also called sLIGHT; AIM II-Flag; not shown: N-terminal FLAG peptide tag from vector pFLAG.CMV-1 (behind the preprotrypsin signal peptide)
binding result [1]: binds | binding result [2]: no binding | binding result [3]: no binding | binding result [4]: binds | binding result [5]: binds | binding result [6]: binds | binding result [7]: no binding | binding result [8]: no binding | binding result [9]: no binding | binding result [10]: binds

B2: natural processed form of AIM II purified from conditioned media of MCA-38 cells transfected with full length AIM II cDNA (residues 83-240) (ligand)
chain: LIQERRSHEVNPAAHLTGANSSLTGSGGPLLWETQLGLAFLRGLSYHDGALVVTKAGYYYIYSKVQLGGVGCPLGLASTITHGLYKRTPRYPEELELLVSQQSPCGRATSSSRVWWDSSFLGGVVHLEAGEEVVVRVLDERLVRLRDGTRSYFGAFMV
notes: apparent mass about 21 kDa, said to be consistent with glycosylation; also called MCA-38 AIM II; AIM II (aa 83-240)
binding result [11]: binds

B3
binding result [12]: binds

B4
binding result [13]: binds

B5
binding result [13]: binds | binding result [14]: no binding
